In PMC5587793:

Tests used:
[1] = target: T1, His-GapR (Caulobacter crescentus (NA1000?)) (UniProt B8H4R9); assay: EMSA
T1 sequence: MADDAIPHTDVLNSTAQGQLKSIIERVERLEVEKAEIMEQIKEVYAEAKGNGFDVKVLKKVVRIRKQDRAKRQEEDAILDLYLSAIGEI

His-GapR = target: T2, His-GapR (Caulobacter crescentus, UniProt B8H4R9 1-89); assay: EMSA
T2 sequence: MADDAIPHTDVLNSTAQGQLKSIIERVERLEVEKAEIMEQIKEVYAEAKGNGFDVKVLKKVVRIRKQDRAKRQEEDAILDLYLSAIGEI

| Molecule | Kd [1] [nM] | binding result (His-GapR) |
| --- | --- | --- |
| Cori DNA (EMSA of Figure S6) | 10 | – |
| CoriUP oligonucleotide (dsDNA, 3 bp up-replication mutation) DNA 1: GCAGGGCAAGTGGTTAAGCATATGTTAACGGATGATCCACAGG DNA 2: CCTGTGGATCATCCGTTAACATATGCTTAACCACTTGCCCTGC | – | binds |
